{
  "source": "patent US20230157952A1",
  "about": "“METHOD FOR IMPROVING THE STABILITY OF A PHARMACEUTICAL COMPOSITION COMPRISING A HIGH PENETRATION DRUG, AND THE PHARMACEUTICAL COMPOSITION OBTAINED THEREFROM” (Techfields Inc., priority 2020, published 2023)",
  "key": {"[1]": {"assay": "Stability of the pure HPDs (dry solid) at 25° C./RH 60%", "type": "physicochemical", "settings": "pure HPD, 25° C./RH 60%"}, "[2]": {"assay": "Effect of pH value on the stability of the solution (purity)", "type": "physicochemical"}, "[3]": {"assay": "Effect of concentration on the stability of the solution (purity over time)", "settings": "1 equivalent sodium acetate in 50% ethanol at 25° C."}},
  "note": "Non-standard residues stand in square brackets, D forms with d. Arg(NO2) = N=C(NCCC[C@H](N)C(=O)O)N[N+](=O)[O-]",
  "data": [
    {"compound": "Br.CCN(CC)CCOC(=O)C(C)c1ccc(-c2ccccc2)c(F)c1", "note": "(stereo not drawn) [B-1-4, 2-(diethylamino)ethyl 2-(2-fluoro-4-biphenyl)propionate•HBr salt]", "values": [
      {"measurement": "Purity", "setting": "[1]; 18 month", "result": "98.1 ± 0.1"},
      {"measurement": "Purity", "setting": "[1]; 24 month", "result": "97.9 ± 0.1"},
      {"measurement": "Purity", "setting": "[1]; Day 0", "result": "98.6 ± 0.2"}
    ]},
    {"compound": "H-Ala-Pro-Gly-Pro-Arg(NO2)—OCH2CH3•HCl (H-APGP[Arg(NO2)]-OEt; also: HCl salt)", "values": [
      {"measurement": "pH at which the solution is stable", "setting": "[2]; 5% solution in 25% ethanol at 25° C.", "result": "3-6"},
      {"measurement": "Time the solution can be stored at room temperature", "setting": "[2]; 5% solution in 25% ethanol, pH 3-6", "result": "about 3 months"},
      {"measurement": "Purity at Day 30", "setting": "[3]; 0.01 wt %", "result": 55.6, "unit": "%"},
      {"measurement": "Purity at Day 90", "setting": "[3]; 0.01 wt %", "result": 21.3, "unit": "%"},
      {"measurement": "Purity at Day 180", "setting": "[3]; 0.01 wt %", "result": 0, "unit": "%"},
      {"measurement": "Purity at day 0", "setting": "[3]; 0.01 wt %", "result": 98.3, "unit": "%"},
      {"measurement": "Purity at Day 30", "setting": "[3]; 0.1 wt %", "result": 65.7, "unit": "%"},
      {"measurement": "Purity at Day 90", "setting": "[3]; 0.1 wt %", "result": 30.2, "unit": "%"},
      {"measurement": "Purity at Day 180", "setting": "[3]; 0.1 wt %", "result": 8.6, "unit": "%"},
      {"measurement": "Purity at day 0", "setting": "[3]; 0.1 wt %", "result": 98.4, "unit": "%"},
      {"measurement": "Purity at Day 30", "setting": "[3]; 1 wt %", "result": 91.3, "unit": "%"},
      {"measurement": "Purity at Day 90", "setting": "[3]; 1 wt %", "result": 75.9, "unit": "%"},
      {"measurement": "Purity at Day 180", "setting": "[3]; 1 wt %", "result": 56.6, "unit": "%"},
      {"measurement": "Purity at day 0", "setting": "[3]; 1 wt %", "result": 98.5, "unit": "%"},
      {"measurement": "Purity at Day 30", "setting": "[3]; 3 wt %", "result": 96.8, "unit": "%"},
      {"measurement": "Purity at Day 90", "setting": "[3]; 3 wt %", "result": 92.1, "unit": "%"},
      {"measurement": "Purity at Day 180", "setting": "[3]; 3 wt %", "result": 85.8, "unit": "%"},
      {"measurement": "Purity at day 0", "setting": "[3]; 3 wt %", "result": 98.8, "unit": "%"},
      {"measurement": "Purity at Day 30", "setting": "[3]; 5 wt %", "result": 97.1, "unit": "%"},
      {"measurement": "Purity at Day 90", "setting": "[3]; 5 wt %", "result": 94.4, "unit": "%"},
      {"measurement": "Purity at Day 180", "setting": "[3]; 5 wt %", "result": 89.7, "unit": "%"},
      {"measurement": "Purity at day 0", "setting": "[3]; 5 wt %", "result": 98.9, "unit": "%"},
      {"measurement": "Purity at Day 30", "setting": "[3]; 7 wt %", "result": 97.5, "unit": "%"},
      {"measurement": "Purity at Day 90", "setting": "[3]; 7 wt %", "result": 95.0, "unit": "%"},
      {"measurement": "Purity at Day 180", "setting": "[3]; 7 wt %", "result": 91.3, "unit": "%"},
      {"measurement": "Purity at day 0", "setting": "[3]; 7 wt %", "result": 98.9, "unit": "%"},
      {"measurement": "Purity at Day 30", "setting": "[3]; 8 wt %", "result": 97.6, "unit": "%"},
      {"measurement": "Purity at Day 90", "setting": "[3]; 8 wt %", "result": 95.1, "unit": "%"},
      {"measurement": "Purity at Day 180", "setting": "[3]; 8 wt %", "result": 91.4, "unit": "%"},
      {"measurement": "Purity at day 0", "setting": "[3]; 8 wt %", "result": 98.8, "unit": "%"},
      {"measurement": "Purity at Day 30", "setting": "[3]; 10 wt %", "result": 97.6, "unit": "%"},
      {"measurement": "Purity at Day 90", "setting": "[3]; 10 wt %", "result": 95.2, "unit": "%"},
      {"measurement": "Purity at Day 180", "setting": "[3]; 10 wt %", "result": 91.5, "unit": "%"},
      {"measurement": "Purity at day 0", "setting": "[3]; 10 wt %", "result": 98.9, "unit": "%"},
      {"measurement": "Purity at Day 30", "setting": "[3]; 15 wt %", "result": 97.6, "unit": "%"},
      {"measurement": "Purity at Day 90", "setting": "[3]; 15 wt %", "result": 95.0, "unit": "%"},
      {"measurement": "Purity at Day 180", "setting": "[3]; 15 wt %", "result": 91.4, "unit": "%"},
      {"measurement": "Purity at day 0", "setting": "[3]; 15 wt %", "result": 98.8, "unit": "%"},
      {"measurement": "Purity at Day 30", "setting": "[3]; 20 wt %", "result": 97.5, "unit": "%"},
      {"measurement": "Purity at Day 90", "setting": "[3]; 20 wt %", "result": 95.1, "unit": "%"},
      {"measurement": "Purity at Day 180", "setting": "[3]; 20 wt %", "result": 91.5, "unit": "%"},
      {"measurement": "Purity at day 0", "setting": "[3]; 20 wt %", "result": 98.9, "unit": "%"},
      {"measurement": "Purity at Day 30", "setting": "[3]; 30 wt %", "result": 97.6, "unit": "%"},
      {"measurement": "Purity at Day 90", "setting": "[3]; 30 wt %", "result": 95.1, "unit": "%"},
      {"measurement": "Purity at Day 180", "setting": "[3]; 30 wt %", "result": 91.7, "unit": "%"},
      {"measurement": "Purity at day 0", "setting": "[3]; 30 wt %", "result": 98.9, "unit": "%"},
      {"measurement": "Purity at Day 30", "setting": "[3]; 50 wt %", "result": 97.5, "unit": "%"},
      {"measurement": "Purity at Day 90", "setting": "[3]; 50 wt %", "result": 95.2, "unit": "%"},
      {"measurement": "Purity at Day 180", "setting": "[3]; 50 wt %", "result": 91.6, "unit": "%"},
      {"measurement": "Purity at day 0", "setting": "[3]; 50 wt %", "result": 98.8, "unit": "%"}
    ]},
    {"compound": "CCN(CC)CCOC(=O)[C@@H](C)c1ccc(CC(C)C)cc1.Cl", "note": "[C-1-2, 2-(diethylamino)ethyl (S)-2-(p-isobutylphenyl)propionate•HCl salt]", "values": [
      {"measurement": "Purity", "setting": "[1]; 24 month", "result": "98.0 ± 0.5"}
    ]},
    {"compound": "Br.CCN(CC)CCOC(=O)[C@H](C)c1ccc(CC(C)C)cc1", "note": "(racemic) [C-1-4, 2-(diethylamino)ethyl (R,S)-2-(p-isobutylphenyl)propionate•HBr salt]", "values": [
      {"measurement": "Purity", "setting": "[1]; 24 month", "result": "98.0 ± 0.5"}
    ]},
    {"compound": "CCN(CC)CCOC(=O)[C@H](C)c1ccc2cc(OC)ccc2c1.Cl", "note": "[A-1-3, 2-(diethylamino)ethyl (R)-2-(6-methoxy-2-naphthyl) propionate•HCl salt]", "values": [
      {"measurement": "Purity", "setting": "[1]; 18 month", "result": "98.1 ± 0.2"},
      {"measurement": "Purity", "setting": "[1]; 24 month", "result": "97.9 ± 0.2"}
    ]}
  ]
}
